Test: label from the status in PepcDB records

Row | Sequence | protein production
1 | YHDETAQDEEDRVLIHFNVRDIKIGPECHDVQPPEGRSRDGLLTVNLREGGRLHLCAETKDDALAWKTALLEANSTPVRVYSPYQDYYEVVPPNAHEATYVRSYYGPPYAGPGVTHVIVREDPCYSAGAPLAMGMLAGAATGAALGSLMWSPCWF | failed
2 | MLVSSSKITRAREMVTKTEEKQLNQLEIQVDNGGGGTWEYLCLVRNLKVRRSEKVLKHGSSILNDQKKRSALGPDEWTLNEQVAIAAMDCQCLGVAQSCIKALQTKFPGSKRVGRLEALLLEAKGLWGEAEEAYASLLEDNPLDQAIHKRRVAISKALGKPSIAIELLNKYLELFMADHDAWRELAELYLSLQMYKQAAFCYEELILSQPTVPLYHLAYAEVLYTIGGVENIISARKYYAATVDLTGGKNTRALLGICLCASAIAQLSKGRNKEDKDATAAPELHSLAAAAVEKEYKQKAPDKLQLISSALRILKT | failed
3 | MGMTVVIILVFSFFVAIVTAETSPYIIHMDLSAKPLPFSDHRSWFSTTLTSVITNRKPKIIYAYTDSVHGFSAVLTNSELQRLKHKPGYVSFTKDLPVKLHTTFSPKFIGLNSTSGTWPVSNYGAGIVIGIIDTGIWPDSPSFHDDGVGSVPSKWKGACEFNSSSLCNKKLIGAKVFNKGLFANNPDLRETKIGQYSSPYDTIGHGTHVAAIAAGNHVKNASYFSYAQGTASGIAPHAHLAIYKAAWEEGIYSSDVIAAIDQAIRDGVHVISLSLGLSFEDDDDNDGFGLENDPIAVASFAAIQKGVFVVTSGGNDGPYYWSLINGAPWIMTVGAGTIGRQFQGTLTFGNRVSFSFPSLFPGEFPSVQFPVTYIESGSVENKTLANRIVVCNENINIGSKLHQIRSTGAAAVVLITDKLLEEQDTIKFQFPVAFIGSKHRETIESYASSNKNNATAKLEFRKTVIGTKPAPEVGTYSSRGPFTSFPQILKPDILAPGTLILSAWPSVEQITGTRALPLFSGFNLLTGTSMAAPHVAGVAALIKQVHPNWSPSAIKSAIMTTALTLDNPLAVGAGHVSTNKVLNPGLIYDTTPQDFINFLCHEAKQSRKLINIITRSNISDACKKPSPYLNYPSIIAYFTSDQSSPKIFKRTLTNVGEAKRSYIVRVRGLKGLNVVVEPKKLMFSEKNEKLSYTVRLESPRGLQENVVYGLVSWVDEDEAEFEVSCSVVATSLVQES | failed
4 | MTAYTSWQTPHLFIFIQQDYILDSIPLSSLFITLIILLLLSAFFSSAETGLMSLNRYKIRHLTAQGHKGAKLAEKLLNKTDVLLSLILICNNLINIAASAIATMIGIRLAGDTGIAIATGILTLVMLVFSEILPKTIAVIYPEKISFLASYILTPLKKLLMPLVFLMNLIIKYLMKLMRIRQHEKSGLSIEELRSVVLEAGKFIPTAHQEMLISILDMEKVTVEDIMVPRNDIGGIDIEDDWKAIIRQLNHAAHGRVVLYKGNMDKNILGILRIREAFRLLLDKEEPSKKTLIRAVDEAYFIPEGTPLITQLMHFKTNKERLGLVVDEYGDIKGLVTLADILEEIVGEFTTSTAPTLAEEVKQQSDGSVIIEGSANLRDLNKLFNWHLPINEVRTFNGLILEHLEKIPIEGTQFRLNQLNITVLEVADNMVKKVKVELIE | failed
5 | GLDTGALDQQQNNNGRESIRTVNVSVNNAVTKIVSNMSPAVVGVVNIQKSDIWGESGEAGSGSGVIYKKNDHSAYVVTNHHVIEGASQIEISLKDGSRVSADLVGSDQLMDLAVLRVKSDKIKAVADFGNSDKVKSGEPVIAIGNPLGLEFAGSVTQGVISGTERAIPVDSNGDGQPDWNAEVLQTDAAINPGNSGGALLNMDGKVIGINSMKIAESAVEGIGLSIPSKLVIPVIEDLERYGKVKRPFLGIEMKSLSDIASYHWDETLKLPKNVTNGAVVMGVDAFSPAGKAGLKELDVITEFDGYKVNDIVDLRKRLYQKKVGDRVKVKFYRGGKEKSVDIKLSSA | failed
6 | MAKTLNSICFTTLLLVLLFISAEIPTAEANCDTYLGEVTVYYPCRERDCEAQCYEHYPHSCKGECEHHDHVVHHDNEEEHCHCYGR | failed
7 | MSTVNNHRVVIRRRKVRRGGHHGGSWKIAYADFITAMMAFFLVMWLISIVPREELKGIAEYFRMPLRVALTGGPSSSAETSAIPGGGQDPLRSQGDVRRAEGNRVEAQPMGDAERRDRHRLERLKVRLENLIEESPVLKNFRPQLLIDMTTEGLRIQIVDNQNRPMFATGSADVQPYMRDILRELGPVLNDLPNKISIAGHTDASQYARGERAYSNWELSADRANASRQELVAGGMHEGKVLRIQGLASSMSLVKDDPFAAVNRRISLVVLNASTQRRIENENAAAADVNARDAQGVGAALAGQLAASGSDGGAR | failed
8 | MHKVLVPFDGSEHAMRALGYVIELSGDLNKPLEVHVLNVQASPIDYSLYLAPDMIDGVKAGLKNEGKRVLDDAIALLAAAGVPFQAHVDLGNVAEQVEAEVQRLGCDAVVMGTRGLGNFGGLLLGSVATRVIHEVSVPVTLIK | failed
9 | MLELAAGFICLTSLLTYVNYRFIGLPPTIGVMVTALMFSLLLQGLSFLGYPGLEDRVQQLIGQIDFGDLLMNWMLSFLLFAGALHVNLADLKSYRWPIGLLATFGVLIATTVIGALAYWIFALFGWHVSPLYCLLFGALISPTDPIAVLGVLRTANASKPLKTTIVGESLFNDGTAVVVFTVLLGIAQLGETPTVGETALLFVHEAVGGVLFGGLIGYAVYLMIKSIEQYQIEVMLTLALVIGGSAMASELHVSGPIAMVVAGLIIGNLGRNLAMNDMTRRYMDGFWELLDDMLNALLFALIGMELLLLPFSWQHLIAASLLAVAILLSRFVTVAPAILLLRRWRKVPHGTIRILTWGGLRGGVSVALALALPNGPERDLLLSITYIVVLLSILFQGLTIGKLVNAVTREPQAKDPAGH | failed
10 | ELGLRSKTNVVSLDKIIIDKKSSLITGFPEFRMVWKVVRQRVVDDLVSVLDTDYLDMELIPNLTRQIAEQSIYSYIENGLKLLIDYAQKEITIDHSSDRDKILMDIGKDPYVVSIKSKVYLQDGRQFQFTESRHKLEKFRFVDFAKRKK | not failed
11 | MEGTLSFVSGFAPAVYRRELFRHRCVTTAPEARAWPRLGLLRANSGARLSRVDITPEIYKRLVSMAKRTEGNFSAVAGAILESYLTAATNRDLRAVIFDMDGVLCDSERLSRAAGVEYFRRYHGVWPTEKDFADFAGTGEAAFLSGVARRYSVKDFDVNKAKEGFFNIYVNEYVSALEPFEGVREFIQQIKTMGLKTALASSADAIKVHANLSAIGFERDMFDFVTRSDEIANKKPAPDIFLAAAEGLGVPPESCVVIEDAPAGVLAAKRARMRCVAVATSVSAQLLWDAGADIVRPAPQYIMLDDIVITDDADASAPASASQE | failed
12 | MQFLPILFVLLASGSFLSYTLSSYAIGNGTANIYHYVLNATSTGTEYNVSVFLNWSYSNLYEYVNKYDYSTFHKNFQVPDLYYIFYHSNPSTLAYILLFNNVTLTTYNLGGNQIPAIKFYNGDNYLTVSAQYGVMLQGFAKNYAGPSAGTLNVSISLNSYKNLPSFVSNANMYTLNVSFMPNPSALSYTLYLVSPEAKISGSNMYVSKEISIAYLSILSKGFTTIIIPSAYSIVRPIGEVIINQTNYYYFYLNGTLTYYGTYFTPKYYNSTTPFTIDTIGKYIVIFFPTGGNITVFLNNGNNPLYGVKVTGETGNKNTPLSLYLIIIGVVIVLVVAIIVLRFRKVF | failed
13 | MNNRPQLIYILPNLFTAASAFLGVISIIASIHGNYYTALIYIILSLICDGLDGRVARLTNSTSKFGVEFDSLADLVAFGVAPAVLFYMAIGYDFGKLGSLITAFFVVFGAIRLARFNVTTGTYEPSVFIGLPIPTAAVVSAIWTYAFISYDFLKPYGVVFLVLQAILGLLMVSNIRYPSFKKLDFNRSSVLKVLIILIIIFSFLYLYPLESLVILASLYVLYGIIRVLYTIIVSKFKIRNQE | failed
14 | MSYLLRSDPVSRIHPEPQSLTSFDHFDLLPDSLLLLIFDKVADVKDLGRCCIVSRRFHSLVPFVENVLVRVDCVISDDDSSSSDENHRFSLNTASISDAGGAGGSFSALFRLVFAPIFKPFQMLGQILGPKRSSSSFDASFSAINDEIGVTHHSPTQVLKNFGEIRFLKIELPTGELGIEDGILLKWRADFGSTLDNCMILGASSVIQSNSVKNHENSVDEDNGNIPESFYTNGGLKLRVVWTISSLIAASARHYLLQPIINEHKSLDRLVLSDADGQGVLCMNREQLEELRVTPLSASSASKRTLVPALNMRLWYAPELDLPDGTVLKGATLVAIRPSESKKEVCDASWLSDAFEEPFGTVAKMLIKRRTYCLEMNSF | failed
15 | MRERRYSSTSPERLAAALFDVAAESGLEGASVREVAKRAGVSIGAVQHHFSTKDEMFAFALRTLVDKLLARLSEVERGGDPARALFAAMSQLLPLDEARSREAHVMAAFAVRAATSPSLAEIRRKTLFTIRTGLSAVLIGIGTPEAETRAALLLATVDGLALDAIGSPALYPPEYLEHALDIQIGMILQGADVVPSSSIELAS | not failed
16 | MISKVIEALAVFTTSVISSMGYGGIVLLMAIESACIPLPSEIIMPFAGYLVYRGEMTLHGAALAGAIGCVVGSIPAYYLGQFGGRPLIEKYGRYVLLSHKELDLADRLFQRWGQWVVFAGRLLPVVRTFIAFPAGVSRMPMGKFIAYTFVGSYPWCYALAWVGEWAGEAWHTDPRVKAVYHRFELVIVVAGVLAVAWFVWHKVKEARRARVPAAADEG | failed
17 | MHREQAPEHRDRTSEHRDRTPERRDRTPEPPGRASGPAAPAPASEPPGTDLGWLLEDLVARTDHVRQAVLLTADGLPLSASDGMRARDIEHLAAVCSGFHSLARSAGERFAAGDVRQTMVMLDDAYLFITPAGDGSRLAVLSEVQTDVGQLAHEMALLVRRVGRHMDAAVRSAVHSAGS | failed
18 | MPGAEKGPQPRRPDFTEAGVIQNRAAGRNRSPDPSPDGAQARRRSWRNQGAWLSFVAWPHRRGSATVEPPPLTLRQQLTTVRWLLTGLFAMMLLVFLYFGRDVLMPIVLALLLALMLSPIVRLLRRRKVPEGVAAVVVTLGFAAGMLLIGFTISGPVATWLEDAPSIGKRIAHKLSSLRESFDVVLDASRQVEEAADTSSKDNTDRVVMAQPGLLVKAADSLASGFTTFGVTIVITLFFLASGSMFTEKIVHVMPLFRDKLRVLRVVRDIETEVSSYLLTVAMINAGLGVAVGCALWLAGMPNAFLWGGMAMVLNFLPYIGSMIGISLVALVSFVTFDSLGQALIPPLSYLAVTSVEGQFLTPAIVGRRLELNALSVMLAVLFWAWLWGIVGALIAVPLLVVVKVVCSHFEGLAVVGEFLSARRPFSDQVKDGA | failed
19 | MDQQYDFGRPMGHERRSKEHDVTMRNRKTLDITGVKQVESFDNEEFLLETEMGFLSIRGRNLHMKNLNVEEGLVSIEGKIFDMVYLEQGQGEKSKGFFGKLFKLEHHHHHH | failed
20 | MGKENLYVVLPSYNEEANIGKLINEWNVQFKDLEARGIKLEIIIVNDGSTDNTLAVAEAFSKHNDNVVVIDHGVNKGLGEGLNTGINYVLSQKQKGYMCLMDGDMTHEPKYIFSMLDKLQEEKLDCVIASRYRRGAKVEGLSLFRKFLSFGARVLYTIRLGIPNVRDYTCGYRLYKTSVLEKLHKVYGKRIVKETGFACMMELIVKVSKENFKIGEVPFVLKYQLKGGESKMKVGKTIKRSLLLLRVYKLEHHHHHH | not failed
21 | KEAGSQIMKFEVQDASPTIATELNLVTGEQVYYIKRLRFIEDNAAQLEETWMSVARFPDLTVSHMQKSKFSYIENECGIKIIGTFETFSPTFPTPEIASILRISPRDPILKIQTQAVDSNSIPLDYSLLYSN | failed
22 | TSLEEITKAIMADSQNKVFTEKNIEPLFAAPKTARINIVGQAPGIKAQESRLYWNDKSGDRLREWMGVDYDTFYHSGYFAVIPMDFYYPGKGKSGDLPPRKGFAQKWHQPILDLLPDIQLTILIGNYAQKYYLHQKSSVKLTDTVAHYKKYLPDYFPLVHPSPRNQIWMSRHPWFEAQVVPDLKKIIQQII | not failed
23 | VAVINSAQDAPSEAPTEVGVKVLSSSEISVHWEHVLEKIVESYQIRYWAAHDKEEAANRVQVTSQEYSARLENLLPDTQYFIEVGACNSAGCGPPSDMIEAFTKKA | not failed
